By IC50 is commonly meant the concentration that gives 50% inhibition.

This note sets out measurements from patent US20140087995A1 (published 2014).

Test [1] addresses T1, human calcitonin receptor (human, UniProt P30988 25-474).
T1 construct: whole, on cells; also called hCTR; hCT
T1 sequence (looked up): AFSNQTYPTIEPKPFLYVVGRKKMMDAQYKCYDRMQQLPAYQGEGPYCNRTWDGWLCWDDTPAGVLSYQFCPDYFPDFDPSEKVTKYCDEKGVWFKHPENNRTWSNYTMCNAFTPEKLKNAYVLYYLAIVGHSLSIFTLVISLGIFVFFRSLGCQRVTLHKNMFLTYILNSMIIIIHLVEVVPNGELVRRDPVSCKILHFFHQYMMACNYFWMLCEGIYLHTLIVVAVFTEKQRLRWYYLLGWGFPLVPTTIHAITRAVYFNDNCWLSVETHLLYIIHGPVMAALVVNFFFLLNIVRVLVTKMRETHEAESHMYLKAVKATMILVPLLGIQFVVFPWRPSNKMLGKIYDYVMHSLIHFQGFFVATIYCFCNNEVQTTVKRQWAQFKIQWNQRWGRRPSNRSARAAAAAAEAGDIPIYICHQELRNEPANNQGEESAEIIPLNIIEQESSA
As to the kind of experiment: ratio of IC50 at hCTR to IC50 at the human amylin receptor (reference). The protocol:
The resulting pellet was resuspended, homogenized and centrifuged (20.000 rpm, 15 min) in a buffer containing 20 mM Na-HEPES and 0.1 mM EDTA (pH 7.4, buffer 2). The resulting pellet was resuspended in buffer 2 and protein concentration was measured (BCA protein Assay, Pierce). The homogenate was kept cold during the whole procedure. The membranes were kept at −80° C. until use. The assay was performed in a 384 well Optiplate (PerkinElmer) in a total volume of 40 ul. Membranes were mixed with SPA beads. Final concentration of membranes 35 ng/μL final and SPA beads was 0.05 mg/well. Test-compounds were dissolved in DMSO and further diluted in assay buffer (50 mM Hepes, pH 7.4, 1 mM CaCl2, 5 mM MgCl₂, 0.1% OA and 0.02% Tween20). […] The final mixture was incubated with shaking at 400 rpm for 120 min at 25° C. prior to centrifugation (1500 rpm, 10 min). Samples were analyzed on TopCounter™ (Packard). The IC₅₀ was calculated using (one site binding competition analysis) GraphPad Prism5 as a measure of receptor affinity.
Membranes were prepared in the following way; the cells were rinsed with PBS and incubated with Versene for approximately 5 min before harvesting. The cells were flushed with PBS and the cell-suspension was centrifuged for 5 min at 1000 rpm. Cells were homogenized (Ultrathurrax) in a buffer containing 20 mM Na-HEPES and 10 mM EDTA (pH 7.4) and centrifuged at 20.000 rpm for 15 min. The resulting pellet was resuspended, homogenized and centrifuged (20.000 rpm, 15 min) in a buffer containing 20 mM Na-HEPES and 0.1 mM EDTA (pH 7.4, buffer 2). The resulting pellet was resuspended in buffer 2 and protein concentration was measured (BCA protein Assay, Pierce). The homogenate was kept cold during the whole procedure. The membranes were kept at −80° C. until use. Assay was performed in a 384 well Optiplate (PerkinElmer) in a total volume of 40 ul. Membranes were mixed with SPA beads.

Test [2] deals with T1, human calcitonin receptor. As to the kind of experiment: SPA competition binding, membranes with human calcitonin receptor, displacement of 125I-calcitonin (Assay VII). On the procedure: Membranes were prepared in the following way; the cells were rinsed with PBS and incubated with Versene for approximately 5 min before harvesting. The cells were flushed with PBS and the cell-suspension was centrifuged for 5 min at 1000 rpm. Cells were homogenized (Ultrathurrax) in a buffer containing 20 mM Na-HEPES and 10 mM EDTA (pH 7.4) and centrifuged at 20.000 rpm for 15 min. The resulting pellet was resuspended, homogenized and centrifuged (20.000 rpm, 15 min) in a buffer containing 20 mM Na-HEPES and 0.1 mM EDTA (pH 7.4, buffer 2). The resulting pellet was resuspended in buffer 2 and protein concentration was measured (BCA protein Assay, Pierce). The homogenate was kept cold during the whole procedure. The membranes were kept at −80° C. until use. Assay was performed in a 384 well Optiplate (PerkinElmer) in a total volume of 40 ul. Membranes were mixed with SPA beads. Final concentration of membranes 35 ng/μL final and Final concentration of SPA beads was 0.05 mg/well. Test-compounds were dissolved in DMSO and further diluted in assay buffer (50 mM Hepes, pH 7.4, 1 mM CaCl2, 5 mM MgCl₂, 0.1% OA and 0.02% Tween20). […] The final mixture was incubated for 120 min with shaking at 400 rpm at 25° C. prior to centrifugation (1500 rpm, 10 min). Samples were analyzed on TopCounter™ (Packard). The […] was calculated using (one site binding competition analysis) GraphPad Prism5 as a measure of receptor affinity.

Numbered stars: 1 amine (or outer) side, 2 acyl side, 3 side chain; on linkers, the order of the positions; unused ones are H or OH. Bridge positions count the residues as written; N and C are the ends. * marks the point of attachment. C20 diacid = O=C(O)CCCCCCCCCCCCCCCCCCC(=O)*; γGlu = O=C(O)[C@H](CCC(=O)[*:2])N[*:1]

B1: N^α1-[(4S)-4-carboxy-4-(19-carboxynonadecanoylamino)butanoyl]-[Glu14,Arg17,Pro21,Pro26]-h-amylin (peptide)
peptide: {C20 diacid-γGlu}-KCNTATCATQRLAEFLRHSSPNFGAPLSSTNVGSNTY-NH2
modifications: disulfide 2-7
SMILES: CC(C)C[C@H](NC(=O)[C@H](CCCNC(=N)N)NC(=O)[C@H](CCC(N)=O)NC(=O)[C@@H](NC(=O)[C@H](C)NC(=O)[C@@H]1CSSC[C@H](NC(=O)[C@H](CCCCN)NC(=O)CC[C@H](NC(=O)CCCCCCCCCCCCCCCCCCC(=O)O)C(=O)O)C(=O)N[C@@H](CC(N)=O)C(=O)N[C@@H]([C@@H](C)O)C(=O)N[C@@H](C)C(=O)N[C@@H]([C@@H](C)O)C(=O)N1)[C@@H](C)O)C(=O)N[C@@H](C)C(=O)N[C@@H](CCC(=O)O)C(=O)N[C@@H](Cc1ccccc1)C(=O)N[C@@H](CC(C)C)C(=O)N[C@@H](CCCNC(=N)N)C(=O)N[C@@H](Cc1c[nH]cn1)C(=O)N[C@@H](CO)C(=O)N[C@@H](CO)C(=O)N1CCC[C@H]1C(=O)N[C@@H](CC(N)=O)C(=O)N[C@@H](Cc1ccccc1)C(=O)NCC(=O)N[C@@H](C)C(=O)N1CCC[C@H]1C(=O)N[C@@H](CC(C)C)C(=O)N[C@@H](CO)C(=O)N[C@@H](CO)C(=O)N[C@H](C(=O)N[C@@H](CC(N)=O)C(=O)N[C@H](C(=O)NCC(=O)N[C@@H](CO)C(=O)N[C@@H](CC(N)=O)C(=O)N[C@H](C(=O)N[C@@H](Cc1ccc(O)cc1)C(N)=O)[C@@H](C)O)C(C)C)[C@@H](C)O
notes: also called compound 7
For B1, in test [1], the “Ratio hCT/hAmylin binding” value turned out to be 16.5. Besides, the IC50 in test [2] was 11.1 nM.

B2: N^α1-[(4S)-4-carboxy-4-(19-carboxynonadecanoylamino)butanoyl]-[Glu14,Arg17,Pro21,Pro27,Asp35,Pro37]-h-amylin (peptide)
peptide: {C20 diacid-γGlu}-KCNTATCATQRLAEFLRHSSPNFGAIPSSTNVGSDTP-NH2
modifications: disulfide 2-7
SMILES: CC[C@H](C)[C@H](NC(=O)[C@H](C)NC(=O)CNC(=O)[C@H](Cc1ccccc1)NC(=O)[C@H](CC(N)=O)NC(=O)[C@@H]1CCCN1C(=O)[C@H](CO)NC(=O)[C@H](CO)NC(=O)[C@H](Cc1c[nH]cn1)NC(=O)[C@H](CCCNC(=N)N)NC(=O)[C@H](CC(C)C)NC(=O)[C@H](Cc1ccccc1)NC(=O)[C@H](CCC(=O)O)NC(=O)[C@H](C)NC(=O)[C@H](CC(C)C)NC(=O)[C@H](CCCNC(=N)N)NC(=O)[C@H](CCC(N)=O)NC(=O)[C@@H](NC(=O)[C@H](C)NC(=O)[C@@H]1CSSC[C@H](NC(=O)[C@H](CCCCN)NC(=O)CC[C@H](NC(=O)CCCCCCCCCCCCCCCCCCC(=O)O)C(=O)O)C(=O)N[C@@H](CC(N)=O)C(=O)N[C@@H]([C@@H](C)O)C(=O)N[C@@H](C)C(=O)N[C@@H]([C@@H](C)O)C(=O)N1)[C@@H](C)O)C(=O)N1CCC[C@H]1C(=O)N[C@@H](CO)C(=O)N[C@@H](CO)C(=O)N[C@H](C(=O)N[C@@H](CC(N)=O)C(=O)N[C@H](C(=O)NCC(=O)N[C@@H](CO)C(=O)N[C@@H](CC(=O)O)C(=O)N[C@H](C(=O)N1CCC[C@H]1C(N)=O)[C@@H](C)O)C(C)C)[C@@H](C)O
notes: also called compound 11
Consider B2, for which the “Ratio hCT/hAmylin binding” value in test [1] is 1. The half-maximal inhibitory concentration (IC50) in test [2] came out at 0.101 nM.

B3: N^α1-[(4S)-4-carboxy-4-(19-carboxynonadecanoylamino)butanoyl]-[Glu14,Arg17,Pro21,Pro27,Arg35]-h-amylin (peptide)
peptide: {C20 diacid-γGlu}-KCNTATCATQRLAEFLRHSSPNFGAIPSSTNVGSRTY-NH2
modifications: disulfide 2-7
SMILES: CC[C@H](C)[C@H](NC(=O)[C@H](C)NC(=O)CNC(=O)[C@H](Cc1ccccc1)NC(=O)[C@H](CC(N)=O)NC(=O)[C@@H]1CCCN1C(=O)[C@H](CO)NC(=O)[C@H](CO)NC(=O)[C@H](Cc1c[nH]cn1)NC(=O)[C@H](CCCNC(=N)N)NC(=O)[C@H](CC(C)C)NC(=O)[C@H](Cc1ccccc1)NC(=O)[C@H](CCC(=O)O)NC(=O)[C@H](C)NC(=O)[C@H](CC(C)C)NC(=O)[C@H](CCCNC(=N)N)NC(=O)[C@H](CCC(N)=O)NC(=O)[C@@H](NC(=O)[C@H](C)NC(=O)[C@@H]1CSSC[C@H](NC(=O)[C@H](CCCCN)NC(=O)CC[C@H](NC(=O)CCCCCCCCCCCCCCCCCCC(=O)O)C(=O)O)C(=O)N[C@@H](CC(N)=O)C(=O)N[C@@H]([C@@H](C)O)C(=O)N[C@@H](C)C(=O)N[C@@H]([C@@H](C)O)C(=O)N1)[C@@H](C)O)C(=O)N1CCC[C@H]1C(=O)N[C@@H](CO)C(=O)N[C@@H](CO)C(=O)N[C@H](C(=O)N[C@@H](CC(N)=O)C(=O)N[C@H](C(=O)NCC(=O)N[C@@H](CO)C(=O)N[C@@H](CCCNC(=N)N)C(=O)N[C@H](C(=O)N[C@@H](Cc1ccc(O)cc1)C(N)=O)[C@@H](C)O)C(C)C)[C@@H](C)O
notes: also called compound 16
Turning to B3, the “Ratio hCT/hAmylin binding” value in test [1] is 19.1. Also, the IC50 in test [2] is 17.1 nM.

B4: N^α1-[(4S)-4-carboxy-4-(19-carboxynonadecanoylamino)butanoyl]-[Glu14,Arg17,Pro21,Pro27,His35]-h-amylin (peptide)
peptide: {C20 diacid-γGlu}-KCNTATCATQRLAEFLRHSSPNFGAIPSSTNVGSHTY-NH2
modifications: disulfide 2-7
SMILES: CC[C@H](C)[C@H](NC(=O)[C@H](C)NC(=O)CNC(=O)[C@H](Cc1ccccc1)NC(=O)[C@H](CC(N)=O)NC(=O)[C@@H]1CCCN1C(=O)[C@H](CO)NC(=O)[C@H](CO)NC(=O)[C@H](Cc1c[nH]cn1)NC(=O)[C@H](CCCNC(=N)N)NC(=O)[C@H](CC(C)C)NC(=O)[C@H](Cc1ccccc1)NC(=O)[C@H](CCC(=O)O)NC(=O)[C@H](C)NC(=O)[C@H](CC(C)C)NC(=O)[C@H](CCCNC(=N)N)NC(=O)[C@H](CCC(N)=O)NC(=O)[C@@H](NC(=O)[C@H](C)NC(=O)[C@@H]1CSSC[C@H](NC(=O)[C@H](CCCCN)NC(=O)CC[C@H](NC(=O)CCCCCCCCCCCCCCCCCCC(=O)O)C(=O)O)C(=O)N[C@@H](CC(N)=O)C(=O)N[C@@H]([C@@H](C)O)C(=O)N[C@@H](C)C(=O)N[C@@H]([C@@H](C)O)C(=O)N1)[C@@H](C)O)C(=O)N1CCC[C@H]1C(=O)N[C@@H](CO)C(=O)N[C@@H](CO)C(=O)N[C@H](C(=O)N[C@@H](CC(N)=O)C(=O)N[C@H](C(=O)NCC(=O)N[C@@H](CO)C(=O)N[C@@H](Cc1c[nH]cn1)C(=O)N[C@H](C(=O)N[C@@H](Cc1ccc(O)cc1)C(N)=O)[C@@H](C)O)C(C)C)[C@@H](C)O
notes: also called compound 18
B4: the “Ratio hCT/hAmylin binding” value in test [1] is 9.2. Besides, the IC50 in test [2] was 5.09 nM.
